The results in this text go back to patent publication US20230400461A1 (TEKNOLOGIAN TUTKIMUSKESKUS VTT, published 2023).

Assay [1] has as its target T1, Staphylococcus aureus Enterotoxin B (Staphylococcus aureus, UniProt P01552 28-266).
T1 sequence: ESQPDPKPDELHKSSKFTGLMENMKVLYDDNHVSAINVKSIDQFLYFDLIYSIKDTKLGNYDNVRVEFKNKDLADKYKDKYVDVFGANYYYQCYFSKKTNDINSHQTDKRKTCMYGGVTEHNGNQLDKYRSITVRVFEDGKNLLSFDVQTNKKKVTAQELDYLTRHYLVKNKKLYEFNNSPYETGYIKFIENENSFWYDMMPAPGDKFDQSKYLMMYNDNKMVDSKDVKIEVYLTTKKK
Briefly: ELISA (screening; results not shown). In general terms: In an ELISA, binding on a coated surface is turned into a signal by an enzyme label.

In assay [2] the target is T2, Staphylococcus aureus Enterotoxin A (Staphylococcus aureus, UniProt P0A0L2 25-257).
T2 sequence: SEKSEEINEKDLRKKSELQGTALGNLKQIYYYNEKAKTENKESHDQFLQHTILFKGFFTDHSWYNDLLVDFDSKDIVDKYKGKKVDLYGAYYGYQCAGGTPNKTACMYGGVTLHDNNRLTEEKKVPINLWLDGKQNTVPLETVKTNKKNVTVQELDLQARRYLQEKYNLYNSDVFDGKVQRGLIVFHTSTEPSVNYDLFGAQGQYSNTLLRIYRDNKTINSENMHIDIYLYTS

B1: anti-SEA (55) Fab (Fab, V domains shown)
VH: QVQLQQSGAELMKPGASVKISCKATGYTISSHWIEWVKQRPGHGLEWIGETLPGSGSTKYNEKFKGKATITADTSSNTAYMQLSSLTSEDSAVYYCARGDGNYGWFAYWGQGTLVTVSA
VL: DIVLTQSPALMAASPGEKVTITCSVSSSISSSNLHWYQQKSETSPKPWIYGTSNLASGVPVRFSGSGSGTSYSLTISSMEAEDAATYYCQQWSSYPLTFGAGTKLELK
By Kd is commonly meant the free concentration of one partner at which half of the binding sites on the other are occupied at equilibrium, for simple one-to-one binding. Low values mean a tighter complex, high ones a looser complex. For orientation: koff means the rate constant with which the complex falls apart. A high value points to fast dissociation. What is called kon is the rate constant with which the complex forms. Read a high kon as faster complex formation. On to B1, for which the binding result in assay [1] is on record as “no binding”. In addition, in assay [2], the Kd turned out to be 3.6 nM, the koff was 0.00035 s⁻¹ and the kon is 97000 M⁻¹ s⁻¹.

B2: anti-SEA (90) Fab (Fab, V domains shown)
VH: EVQLQQSGPELVKPGASVKMSCKASGYTFTSYVMQWVKQKPGQGLEWIGYINPYNDGTKYNEKFKGKATLTSDKSSSTAYMELSSLTSEDSAVYYCARGDGVGGMDYWGQGTSVTVSS
VL: DIVMTQSPATLSVTPGDRVSLSCRASQSISDYLHWYQQKSHESPRLLIKYASQSISGIPSRFSGSGSGSDFTLSINSVEPEDVGVYYCQNGHSFPPTFGGGTKLEIK
Consider B2, for which the binding result in assay [1] is given as “no binding”. In assay [2], the affinity, expressed as Kd, was 3 nM; the koff was found to be 0.0013 s⁻¹; the kon worked out at 420000 M⁻¹ s⁻¹.
